Assay results: PMC3206906, “P50, the Small Subunit of DNA Polymerase Delta, Is Required for Mediation of the Interaction of Polymerase Delta Subassemblies with PCNA” (PLoS ONE, 2011)

Target: T1, digoxigenin (DIG)-labeled recombinant human PCNA (human, UniProt P12004 1-261, digoxigenin label (DIG Protein Labeling Kit); labeled residues not stated)
T1 construct: proliferating cell nuclear antigen (PCNA), human, recombinant wild type; Same protein as m1, chemically labeled with digoxigenin and used as the probe in the overlay; also called PCNA-DIG; DIG-labeled PCNA
Test: far-Western, overlay or dot blot; Increasing amounts of non-tagged p50 or purified pol δ4 run on 12% SDS-PAGE and transferred to nitrocellulose; probed with DIG-labeled PCNA in PBS for one hour (1:10,000 dilution of 0.15 mg/ml stock); detected with Anti-DIG-HRP and ECL; films for p50 slightly overexposed
Settings: both partners purified

T1 sequence (P12004 whole entry): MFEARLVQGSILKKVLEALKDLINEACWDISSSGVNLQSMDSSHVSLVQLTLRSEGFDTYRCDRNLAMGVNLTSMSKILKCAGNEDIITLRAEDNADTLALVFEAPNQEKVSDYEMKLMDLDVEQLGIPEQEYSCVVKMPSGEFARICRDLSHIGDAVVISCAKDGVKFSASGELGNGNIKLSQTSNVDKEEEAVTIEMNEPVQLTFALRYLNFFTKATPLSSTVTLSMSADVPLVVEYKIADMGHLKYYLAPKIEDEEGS

B1: p12 subunit of recombinant human DNA polymerase δ four-subunit complex (natural protein, UniProt Q9HCU8 1-107, looked up)
chain: MGRKRLITDSYPVVKRREGPAGHSKGELAPELGEEPQPRDEEEAELELLRQFDLAWQYGPCTGITRLQRWCRAKQMGLEPPPEVWQVLKTHPGDPRFQCSLWHLYPL
notes: also called pol δ4 subunit p12; source: Bombyx mori (silkworm) bioreactor, purified as the pol δ four-subunit complex, resolved by SDS-PAGE
binding result: binds
